Experimental findings from paper PMC11429998 (bioRxiv, 2024) are described below.

In data set [1] the target is PseCAST Cas7 (Pseudoalteromonas). Briefly: cryo-EM structure.
The data set “cryo-EM structure” deals with the molecule itself. Briefly: cryo-EM structure.

Consider PseCAST Cas7 (natural protein), for which, in data set [1], the stoichiometry N was 6.

B1: PseCAST TniQ (natural protein)
chain: MAFLFSPKIGPFFDESLESYLLRVVSENFFDSYEGLSLAIREELHELDFEAHGAFPIDLKRLNVYHAKHNSHFRMRALGLLETLLDLPRYELQKLALLKSDIKFNSSAALYKGGVDIPQRFICYHTEEAVDSIPVCPQCLAEEAYIKQSWHIKWVNACAKHQCTLVHKCPECCAPINYIENESITHCSCGFELSCGSTSPVNTLSIDHLNKLLNKSELDDNNPLFKNTTLTERFAALLWYQERYSKEETFCLDDVVNYFNGWPVVFYKELDELSKNAAMKLIDLFNKTEFKFIFGNAILSCPNTQKQREPHFIYSTLLDYLATLVESNPKTKKPNVADLLVSVLEAATLLSISIEQVYRLYQDGILQTAFRHKMNQRINPYKGVFFLRHVIEYKTSFGNDKARMYLSAW
Consider B1, for which the “stoichiometry N” value in “cryo-EM structure” came to 2.

A word on the stoichiometry N: it is a count of units in the complex or per binding partner.
